Positions count from the first letter of the chain named. Several values for one entry are separate records, joined by “and”; a condition that tells them apart may be missing. Equal values may be shown once.
B1: ADT1-4/ADT3-1 (bispecific antibody, human IgG1)
heavy: QVQLQQSGPGLVKPSQTLSLTCAISGDSVSSKSAAWNWIRQSPSRGLEWLGRTYYRSKWSTDYAASVKSRITINPDTSKNQLSLQLNSVTPEDTAVYYCARTWSGYVDVWGQGTLVTVSSASTKGPSVFPLAPSSKSTSGGTAALGCLVKDYFPEPVTVSWNSGALTSGVHTFPAVLQSSGLYSLSSVVTVPSSSLGTQTYICNVNHKPSNTKVDKKVEPKSCDKTHTCPPCPAPELAGAPSVFLFPPKPKDTLMISRTPEVTCVVVDVSHEDPEVKFNWYVDGVEVHNAKTKPREEQYNSTYRVVSVLTVLHQDWLNGKEYKCKVSNKALPAPIEKTISKAKGQPREPQVYTLPPSRDETDDGPVSLTCLVKGFYPSDIAVEWESTYGPENNYKTTPPVLDSDGSFFLYSKLTVSYWRWYKGNVFSCSVMHEALHNHYTQKSLSLSPG
light: ASDIQMTQSPPALSASVGDRVTITCRASQDINDWLAWYQHKPGKAPKLLIYDASSLESGVPSRFSGSGSGTEFTLTISSLQPDDFATYYCQQSYSTPQVTFGQGTRLEIKRTAAAPSVFIFPPSDEQLKSGTASVVCLLNNFYPREAKVQWKVDNALQSGNSQESVTEQDSKDSTYSLSSTLTLSKADYEKHKLYACEVTHQGLSSPVTKSFNRGEC
B2: ADT1-4-2/ADT3-1 (bispecific antibody)
heavy: B1 heavy with Q1E, S104V, V109R
light: DIQMTQSPPALSASVGDRVTITCRASQDINDWLAWYQHKPGKAPKLLIYDASSLESGVPLRFSGSGSGTEFTLTISSLQPDDFATYYCQQKYSAPQVTFGQGTRLEIKRTVAAPSVFIFPPSDEQLKSGTASVVCLLNNFYPREAKVQWKVDNALQSGNSQESVTEQDSKDSTYSLSSTLTLSKADYEKHKVYACEVTHQGLSSPVTKSFNRGEC
B3: ADT1-7-20 (antibody, IgG1, V domains shown)
VH: EVQLVESGGGLVKPGGSLRLSCAASGFTFSDYYMSWIRQAPGKGLEWVSYISSSGSTIYYADSVKGRFTISRDNAKNSLYLQMNSLRAEDTAVYYCARVDYQEAFDIWGQGTLVTVSS
VL: DIQMTQSPSSLSASVGDRVTIACRAGQSIGTYLNWYQQKPGKAPKLLIYVASSLQSGVPSRFSGSGSGTEFTLTISSLQPEDFATYYCQQSYSGLDTFGRGTKVEIK
B4: ADT1-7-61 (antibody, IgG1, V domains shown)
VH: B3 VH with V99D, Q102D, E103D
VL: B3 VL with Y92A, G94E, D96L
B5: ADT1-7-3 (antibody, IgG1, V domains shown)
VH: B3 VH with D100S, Q102A
VL: B3 VL
B6: ADT1-4 (parental) (antibody, IgG1, V domains shown)
VH: QVQLQQSGPGLVKPSQTLSLTCAISGDSVSSKSAAWNWIRQSPSRGLEWLGRTYYRSKWSTDYAASVKSRITINPDTSKNQLSLQLNSVTPEDTAVYYCARTWSGYVDVWGQGTLVTVSS
VL: ASDIQMTQSPPALSASVGDRVTITCRASQDINDWLAWYQHKPGKAPKLLIYDASSLESGVPSRFSGSGSGTEFTLTISSLQPDDFATYYCQQSYSTPQVTFGQGTRLEIK
B7: ADT1-4-143 (antibody, IgG1, V domains shown)
VH: B6 VH with Q1E, Q5L, S104V, V107A
VL: DIQMTQSPPALSASVGDRVTITCRASQDINDWLAWYQHKPGKAPKLLIYDASSLESGVPLRFSGSGSGTEFTLTISSLQPDDFATYYCQQRYSTHQVTFGQGTRLVIK
B8: ADT1-4-86 (antibody, IgG1, V domains shown)
VH: B6 VH with Q1E, A34V, S104L, Y106N
VL: B7 VL with R91K, T94E, H95P, V106E
B9: ADT1-4-112 (antibody, IgG1, V domains shown)
VH: B6 VH with Q1E, S104V, V109Y
VL: B7 VL with R91K, T94Q, H95P, V106E
B10: ADT1-4-2 (antibody, IgG1, V domains shown)
VH: B6 VH with Q1E, S104V, V109R
VL: B7 VL with R91K, T94A, H95P, V106E
B11: ADT1-4-138 (antibody, IgG1, V domains shown)
VH: B6 VH with Q1E, S104A, G105D
VL: B7 VL with L60S, H95D, V106E
B12: ADT1-4-19 (antibody, IgG1, V domains shown)
VH: B6 VH with Q1E, S104V, V109R
VL: B7 VL with R91K, H95P, Q96K, V106E
B13: ADT1-4-31 (antibody, IgG1, V domains shown)
VH: B6 VH with Q1E, S104V, V107A
VL: B7 VL with H95P, Q96P, V106E
B14: ADT1-4-6 (antibody, IgG1, V domains shown)
VH: B6 VH with Q1E, S104A, V107P
VL: B7 VL with R91K, S93K, H95P, V106E
B15: ADT1-4-21 (antibody, IgG1, V domains shown)
VH: B6 VH with Q1E, A34V, S104A, G105D
VL: B7 VL with R91K, H95P, Q96W, V106E
B16: ADT1-4-1 (antibody, IgG1, V domains shown)
VH: B6 VH with Q1E, S104V, V107A
VL: B7 VL with H95P, Q96I, V106E
B17: ADT1-4-53 (antibody, IgG1, V domains shown)
VH: B6 VH with Q1E, A34V, S104A, G105D
VL: B7 VL with R91K, H95P, V97L, V106E
B18: ADT1-4-2/ADT3-2 (bispecific antibody)
heavy: B1 heavy with Q1E, S104V, V109R, T361L, D362E, D363E
light: B2 light
B19: ADT1-4-6/ADT3-2 (bispecific antibody)
heavy: B1 heavy with Q1E, S104A, V107P, T361L, D362E, D363E
VL: B7 VL with R91K, S93K, H95P, V106E
B20: ADT1-4-138/ADT3-2 (bispecific antibody)
heavy: B1 heavy with Q1E, S104A, G105D, T361L, D362E, D363E
VL: B7 VL with L60S, H95D, V106E
B21: ADT1-7 (parental) (antibody, IgG1, V domains shown)
VH: B3 VH with E1Q, Q102A, E103D
VL: ASDIQMTQSPSSLSASVGDRVTIACRAGQSIGTYLNWYQQKPGKAPKLLIYVASSLQSGVPSRFSGSGSGTEFTLTISSLQPEDFATYYCQQSYSTLLTFGRGTKVEIK

Each binder was assayed against Vδ1 TCR on human Vδ1-positive γδ T cells (human), A0A1B0 (assay: not given). Conditions: not given.
Vδ1 TCR on human Vδ1-positive γδ T cells (human), A0A1B0, sequence (A0A1B0 entry or part of it mutant limits assumed): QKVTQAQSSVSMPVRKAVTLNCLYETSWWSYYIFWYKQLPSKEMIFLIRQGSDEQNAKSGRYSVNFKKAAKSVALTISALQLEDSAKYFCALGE

| Vδ1 TCR down-regulation (A375 co-culture): % change (at saturation) [%] | Vδ1 TCR down-regulation (A375 co-culture): EC95 [nM] | Vδ1 TCR down-regulation (A431 co-culture): % change (at saturation) [%] | Vδ1 TCR down-regulation (A431 co-culture): EC95 [nM] | Binder |
| --- | --- | --- | --- | --- |
| 34 | 5.9 | 80.3 | 0.0263 | B1 |
| 46 | 0.101 | 81.1 | 0.0079 | B2 |

The binders below were run against Vδ1 TCR on human Vδ1-positive γδ T cells (human), A0A1B0 (assay: cell-based or functional assay). Conditions: not given.

| IC50 TCR DR (no THP-1) | IC90 TCR DR (noTHP-1) | IC50 TCR downregulation (soluble assay, added in solution) [nM] | Binder |
| --- | --- | --- | --- |
| 0.16 nM and 0.164 nM | 1 nM and 1.04 nM | – | B3 |
| 6.3 nM and 6.26 nM | 1700 nM | – | B4 |
| 0.16 nM and 0.161 nM | 0.79 nM | – | B5 |
| – | – | 38.3 | B6 |
| 0.31 nM and 0.313 nM | 0.85 nM and 0.853 nM | – | B7 |
| 0.31 nM and 0.307 nM | 1 nM | – | B8 |
| 0.3 nM and 0.295 nM | 1.1 nM and 1.09 nM | – | B9 |
| 0.31 nM | 0.83 nM and 0.834 nM | – | B10 |
| 8.4 nM and 8.38 nM | 38 nM and 38.3 nM | – | B11 |
| 0.37 nM and 0.367 nM | 1.6 nM and 1.58 nM | – | B12 |
| 0.24 nM and 0.245 nM | 1.1 nM and 1.09 nM | – | B13 |
| 0.48 nM | 1.9 nM and 1.91 nM | – | B14 |
| 0.27 nM and 0.266 nM | 0.89 nM and 0.892 nM | – | B15 |
| 0.36 nM | 0.67 nM | – | B16 |
| 0.25 nM and 0.254 nM | 0.7 nM and 0.698 nM | – | B17 |

Molecular target: Vδ1 TCR on human Vδ1-positive γδ T cells (human), A0A1B0
Assay: not given
Conditions: not given
Remark: another data set of the same source

| Vδ1 TCR down-regulation (A375 co-culture): % change (at saturation) [%] | Vδ1 TCR down-regulation (A375 co-culture): EC50 [nM] | Vδ1 TCR down-regulation (A375 co-culture): EC95 [nM] | Binder |
| --- | --- | --- | --- |
| 102 | 0.00142 | 0.0379 | B18 |
| 81.9 | 0.00606 | 0.0836 | B19 |
| 75.3 | 0.00798 | 0.496 | B20 |

The binders below were run against Vδ1 TCR on human Vδ1-positive γδ T cells (human), A0A1B0 (assay: not given). Conditions: scale: nM.

| IC50 of Vδ1 TCR downregulation (% MFI of anti-Vδ1 staining after 2 h, two γδ cell donors) | Binder |
| --- | --- |
| 22.4 | B21 |

Molecular target: Vδ1 TCR on human Vδ1-positive γδ T cells (human), A0A1B0
Assay: not given
Conditions: not given
Remark: another data set of the same source

| Vδ1 TCR down-regulation (A375 co-culture): % change (at EC100 saturation) [%] | Vδ1 TCR down-regulation (A375 co-culture): EC50 [nM] | Binder |
| --- | --- | --- |
| 96.8 | 0.00095 | B18 |

Molecular target: Vδ1 TCR on human Vδ1-positive γδ T cells (human), A0A1B0
Assay: not given
Conditions: not given
Remark: another data set of the same source

| Vδ1 TCR down-regulation (A375 co-culture): EC50 (read off the curve) [nM] | Binder |
| --- | --- |
| 0.01 | B2 |
